We go through two molecules from patent US20190135895A1 (published 2019).

The target of test [1] is truncated monomeric His-tagged human FcRn (human) (UniProt P55899). Description: SPR (BIAcore 3000), hFcRn injected over immobilized HSA-GST variant, pH 6.0, 1:1 Langmuir model.
The next test addresses T1, WT HSA-GST (human, UniProt P08515 1-218 = GST).
T1 construct: Secreted from HEK293E cells; also called WT-GST; WT HSA fusion
Description: ELISA, mFcRn captured on rabbit IgG, pH 6.0.

Chain of truncated monomeric His-tagged human FcRn (human) (P55899 24-297 limits assumed, chain 1 of 2): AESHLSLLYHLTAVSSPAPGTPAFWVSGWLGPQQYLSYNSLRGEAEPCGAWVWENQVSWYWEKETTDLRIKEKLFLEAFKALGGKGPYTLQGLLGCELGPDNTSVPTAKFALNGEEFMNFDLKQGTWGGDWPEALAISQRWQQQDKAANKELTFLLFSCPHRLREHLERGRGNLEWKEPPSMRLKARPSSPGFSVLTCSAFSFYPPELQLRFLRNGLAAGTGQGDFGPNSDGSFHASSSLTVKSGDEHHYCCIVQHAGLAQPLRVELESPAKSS
Chain of truncated monomeric His-tagged human FcRn (human) (chain, as listed by the source limits assumed, chain 2 of 2): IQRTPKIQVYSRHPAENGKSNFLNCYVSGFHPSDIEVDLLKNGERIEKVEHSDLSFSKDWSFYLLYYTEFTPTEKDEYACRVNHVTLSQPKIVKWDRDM

The molecule “HSA E505Q-GST (from UniProt P08515 1-218)” had a Kd in test [1] of 23.1 nM.

B1: truncated monomeric His-tagged mouse FcRn (receptor)
chain 1: SETRPPLMYHLTAVSNPSTGLPSFWATGWLGPQQYLTYNSLRQEADPCGAWMWENQVSWYWEKETTDLKSKEQLFLEALKTLEKILNGTYTLQGLLGCELASDNSSVPTAVFALNGEEFMKFNPRIGNWTGEWPETEIVANLWMKQPDAARKESEFLLNSCPERLLGHLERGRRNLEWKEPPSMRLKARPGNSGSSVLTCAAFSFYPPELKFRFLRNGLASGSGNCSTGPNGDGSFHAWSLLEVKRGDEHHYQCQVEHEGLAQPLTVDLDSSARSS
chain 2: IQKTPQIQVYSRHPPENGKPNILNCYVTQFHPPHIEIQMLKNGKKIPKVEMSDMSFSKDWSFYILAHTEFTPTETDTYACRVKHASMAEPKTVYWDRDM
notes: extracellular domain; Made in a Baculovirus system; also called mFcRn; soluble mFcRn; not shown: His tag
Regarding B1, the binding result with WT HSA-GST is on record as “no binding”.
